Laboratory results taken from publication PMC3660254, “Control of Translation and miRNA-Dependent Repression by a Novel Poly(A) Binding Protein, hnRNP-Q”.

Target: T1, hnRNP-Q2 (SYNCRIP, hnRNP-Q isoform 2) (mouse (cDNA from Krebs-2 cells), UniProt Q7TMK9-2 1-562)
T1 sequence: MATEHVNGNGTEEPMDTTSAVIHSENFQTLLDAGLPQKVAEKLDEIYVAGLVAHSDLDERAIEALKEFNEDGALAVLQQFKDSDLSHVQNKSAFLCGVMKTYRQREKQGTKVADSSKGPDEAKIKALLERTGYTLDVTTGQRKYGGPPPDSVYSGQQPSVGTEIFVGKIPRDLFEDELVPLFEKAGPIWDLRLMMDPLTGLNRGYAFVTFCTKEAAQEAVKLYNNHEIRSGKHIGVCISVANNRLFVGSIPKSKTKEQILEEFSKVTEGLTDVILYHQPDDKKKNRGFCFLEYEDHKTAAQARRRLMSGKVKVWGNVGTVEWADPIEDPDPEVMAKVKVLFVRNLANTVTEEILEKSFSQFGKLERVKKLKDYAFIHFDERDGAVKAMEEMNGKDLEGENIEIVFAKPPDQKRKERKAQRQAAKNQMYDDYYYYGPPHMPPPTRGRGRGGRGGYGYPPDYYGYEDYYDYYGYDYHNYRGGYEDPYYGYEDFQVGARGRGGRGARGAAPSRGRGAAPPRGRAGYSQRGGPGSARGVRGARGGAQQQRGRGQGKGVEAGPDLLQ
Assay: EMSA; apparent Kd, 2 mM Mg2+; three experiments; EMSA: 20 mM HEPES-KOH pH 7.3, ~100 mM KCl, 2 mM MgCl2, 1 mM DTT, 0.05% NP40, 5% glycerol, 0.1 mg/ml acetylated BSA (plus 2 ul protein in buffer A), 30 C 30 min, gel at 4 C; UV crosslinking in nuclease-treated RRL
Conditions: protein: recombinant; tags: C-terminal His6 (pET28a); label: 5' 32P; single strand

Q: For AAAAAAAAAAAAAAAAAAAAAAAAAAAAAA (ssRNA) [oligo(A)30], which Kd is on record?
A: ~30 nM
